Series [1] concerns the target T1, recombinant PtCAD protein (Populus tremuloides, UniProt Q9M632). The series can be described thus: Kinetic properties of the recombinant PtCAD protein (HPLC-UV/MS). The class given is biochemical. The note with it: substrate of PtCAD; relative, coniferaldehyde = 100. How it is done:
(§1) To characterize the enzyme pH optima, the substrate and recombinant PtCAD or PtSAD protein concentrations described above were used in sodium phosphate buffers, pH 5 to 8.5. […] For inhibition kinetics, the PtCAD-mediated reduction of sinapaldehyde (1 to 200 μM) was assayed in the presence of 1 to 5 μM coniferaldehyde, and the PtSAD-catalyzed reduction of coniferaldehyde (1 to 200 μM) was assayed in the presence of 1 to 5 μM sinapaldehyde. All reactions were terminated by the addition of 10 μL of 6 N HCI (to bring the pH to 2) and 500 ng of internal standard o-coumaric acid and analyzed by HPLC-UV/MS. An aliquot of 100 μL of reaction mixture was injected directly onto a Supelcosil LC-ABZ column (15 cm×4.6 mm×5 μm; Supelco, Bellefonte, Pa.) with automatic sample injection and separated isocratically with a Hewlett-Packard (HP) 1100 liquid chromatography system at 40° C. and a flow rate of 0.25 mL/min. […] The reaction products were identified and confirmed by comparing the ion fragmentation patterns of the product and the authentic standard in MS scanning mode at 70 V. The product quantity and Km, Vmax, kcat, and apparent inhibition constant (Ki) values (means±SE) were determined as described (Osakabe et al., 1999; Li et al., 2000). The results of the inhibition kinetics for both the CAD enzyme (i.e. Table 2) and the SAD enzyme (i.e., Table 3) using a variety of substrates are illustrated below.

Series [2] addresses recombinant PtSAD protein (Populus tremuloides, UniProt Q94G59). As to the kind of experiment: Kinetic properties of the recombinant PtSAD protein (HPLC-UV/MS). As to conditions: substrate of PtSAD; relative, sinapaldehyde = 100. The class given is biochemical. How it is done: as §1
Series [3] deals with PtSAD recombinant protein. The series can be described thus: SAD enzyme activity assay, single and mixed substrates (HPLC-MS). In kind it is biochemical, Populus tremuloides. How it is done:
After 10 min at 30° C., the reaction was terminated and extracted with 0.5 ml ethyl acetate. The extraction was repeated 4 times and the combined ethyl acetate was evaporated and dissolved in the HPLC mobile phase for LC-MS identification and quantitation of the reaction products as we did before (Osakabe et al., 1999; Li et al. 2000). […] The SAD reactions with mixed substrates, sinapaldehyde and coniferyl aldehyde, were therefore conducted at the optimal pH 7.0 under above-described conditions. […] To characterize the enzyme pH optima, the substrate and recombinant PtCAD or PtSAD protein concentrations described above were used in sodium phosphate buffers, pH 5 to 8.5. All reactions were for 10 minutes at 30° C. An aliquot of 100 μL of reaction mixture was injected directly onto a Supelcosil LC-ABZ column (15 cm×4.6 mm×5 μm; Supelco, Bellefonte, Pa.) with automatic sample injection and separated isocratically with a Hewlett-Packard (HP) 1100 liquid chromatography system at 40° C. and a flow rate of 0.25 mL/min. […] The reaction products were identified and confirmed by comparing the ion fragmentation patterns of the product and the authentic standard in MS scanning mode at 70 V. The product quantity and Km, Vmax, kcat, and apparent inhibition constant (Ki) values (means±SE) were determined as described (Osakabe et al., 1999; Li et al., 2000). The results of the inhibition kinetics for both the CAD enzyme (i.e. Table 2) and the SAD enzyme (i.e., Table 3) using a variety of substrates are illustrated below.

The target in series [4] is T1, recombinant PtCAD protein. The series can be described thus: PtCAD enzyme activity with a mixture of coniferaldehyde and sinapaldehyde (HPLC-MS). The class given is biochemical. From the text: A guaiacyl pathway gene encoding coniferyl alcohol dehydrogenase (CAD, FIG. 1) from Populus tremuloides (GenBank #AF217957) was first cloned. This cDNA was designated as PtCAD (GenBank #AF217957). E. coli-expressed recombinant PtCAD protein was characterized for its catalytic activity with coniferaldehyde and sinapaldehyde. Because monolignol biosynthetic pathway intermediates are present together in lignifying tissues (Osakabe et al., 1999; Li et al. 2000), the PtCAD enzyme activity with a mixture of coniferaldehyde and sinapaldehyde was assayed. As shown in FIG. 5 (a) and (c), the reaction mixture was separated by HPLC after the enzyme reaction. […]
An aliquot of 100 μL of reaction mixture was injected directly onto a Supelcosil LC-ABZ column (15 cm×4.6 mm×5 μm; Supelco, Bellefonte, Pa.) with automatic sample injection and separated isocratically with a Hewlett-Packard (HP) 1100 liquid chromatography system at 40° C. and a flow rate of 0.25 mL/min. […] The reaction products were identified and confirmed by comparing the ion fragmentation patterns of the product and the authentic standard in MS scanning mode at 70 V. The product quantity and Km, Vmax, kcat, and apparent inhibition constant (Ki) values (means±SE) were determined as described (Osakabe et al., 1999; Li et al., 2000). […]

Substrate in series [5]: COc1cc(/C=C/C=O)cc(O)c1O
As to the kind of experiment: Kinetic properties of the recombinant PtSAD protein (HPLC-UV/MS). The class given is biochemical, Populus tremuloides. As to conditions: other: substrate of PtSAD, pH 7.0, 4 min, 30° C., NADPH, means of three independent assays.

Substrate in series [6]: O=C/C=C/c1ccc(O)c(O)c1
The description is as above. As to conditions: other: substrate of PtSAD, pH 7.0, 4 min, 30° C., NADPH, means of three independent assays. In kind it is biochemical, Populus tremuloides.

Substrate in series [7]: COc1cc(/C=C/C=O)ccc1O
The series is described as above. In kind it is biochemical, Populus tremuloides. As to conditions: other: substrate of PtSAD, pH 7.0, 4 min, 30° C., NADPH, means of three independent assays.

Substrate in series [8]: O=C/C=C/c1ccc(O)cc1
The description is as above. In kind it is biochemical, Populus tremuloides. As to conditions: other: substrate of PtSAD, pH 7.0, 4 min, 30° C., NADPH, means of three independent assays.

Substrate in series [9]: COc1cc(/C=C/C=O)cc(OC)c1O
The description is as above. In kind it is biochemical, Populus tremuloides. The note with it: other: substrate of PtSAD, pH 7.0, 4 min, 30° C., NADPH, means of three independent assays.

Substrate in series [10]: COc1cc(/C=C/C=O)cc(O)c1O
As to the kind of experiment: Kinetic properties of the recombinant PtCAD protein (HPLC-UV/MS). The class given is biochemical, Populus tremuloides. The note with it: other: substrate of PtCAD, pH 8.0, 4 min, 30° C., NADPH, means of three independent assays. How it is done: as §1

Substrate in series [11]: O=C/C=C/c1ccc(O)c(O)c1
The description is as above. In kind it is biochemical, Populus tremuloides. The note with it: other: substrate of PtCAD, pH 8.0, 4 min, 30° C., NADPH, means of three independent assays. How it is done:
as §1

Substrate in series [12]: COc1cc(/C=C/C=O)ccc1O
The description is as above. As to conditions: other: substrate of PtCAD, pH 8.0, 4 min, 30° C., NADPH, means of three independent assays. The class given is biochemical, Populus tremuloides. How it is done: as §1

Substrate in series [13]: O=C/C=C/c1ccc(O)cc1
The description is as above. The class given is biochemical, Populus tremuloides. The note with it: other: substrate of PtCAD, pH 8.0, 4 min, 30° C., NADPH, means of three independent assays. How it is done:
as §1

Substrate in series [14]: COc1cc(/C=C/C=O)cc(OC)c1O
Described as above. In kind it is biochemical, Populus tremuloides. The note with it: other: substrate of PtCAD, pH 8.0, 4 min, 30° C., NADPH, means of three independent assays. How it is done: as §1

Consider `COc1cc(/C=C/C=O)cc(O)c1O` [5-Hydroxyconiferaldehyde], for which the Vmax/Km worked out at 10.6% in series [1] and 15.5% in series [2].

As to `O=C/C=C/c1ccc(O)cc1` [p-Coumaraldehyde], the results for the Vmax/Km in series [1] and in [2] were 30.1% and 27.4%, respectively.

`COc1cc(/C=C/C=O)cc(OC)c1O` [Sinapaldehyde]: the Vmax/Km is on record as 12.0% in series [1] and 100% in series [2]. Further, the “reaction of PtSAD with the substrate in a mixture” value in [3] (mixture of coniferaldehyde and sinapaldehyde, pH 7.0) is on record as “sinapyl alcohol is the exclusive product”. Moreover, in series [3] (ratio of specific activities), the “catalytic efficiency of PtSAD with sinapaldehyde versus coniferaldehyde” value came to 9 times. Besides, the “reaction of PtCAD with the substrate in a mixture” value in series [4] is “no reaction”.

As for `O=C/C=C/c1ccc(O)c(O)c1` [Caffealdehyde], the Vmax/Km in series [1] was 4.4%; in [2], 2.2%.

B1: recombinant PtSAD protein (Populus tremuloides) (protein)
chain: MSKSPEEEHPVKAFGWAARDQSGHLSPFNFSRRATGEEDVRFKVLYCGICHSDLHSIKNDWGFSMYPLVPGHEIVGEVTEVGSKVKKVNVGDKVGVGCLVGACHSCESCANDLENYCPKMILTYASIYHDGTITYGGYSDHMVANERYIIRFPDNMPLDGGAPLLCAGITVYSPLKYFGLDEPGKHIGIVGLGGLGHVAVKFAKAFGSKVTVISTSPSKKEEALKNFGADSFLVSRDQEQMQAAAGTLDGIIDTVSAVHPLLPLFGLLKSHGKLILVGAPEKPLELPAFSLIAGRKIVAGSGIGGMKETQEMIDFAAKHNITADIEVISTDYLNTAIERLAKNDVRYRFVIDVGNTLAATKP
One may read the Km as the concentration of substrate that gives half-maximal velocity. The term Vmax denotes the rate approached at saturating substrate. A word on the kcat: it is the maximal rate divided by the concentration of active sites. As to B1, the Km in [5] came to 36.1 µM; in series [6], 140.0 µM; in series [7] it was 12.7 µM; in [8], 15.6 µM; in series [9], 7.4 µM. The Vmax in series [5] stood at 3.8 µmol/min/mg; in [6], 2 µmol/min/mg; in series [7] it was 2.3 µmol/min/mg; in [8], 2.9 µmol/min/mg; in series [9], 5 µmol/min/mg. The catalytic constant (kcat) came to 2.53 s⁻¹ in [5]; 1.33 s⁻¹ in series [6]; 1.53 s⁻¹ in [7]; 1.93 s⁻¹ in [8]; 3.33 s⁻¹ in [9].

B2: recombinant PtCAD protein (Populus tremuloides) (protein)
chain: MGSLETERKIVGWAATDSTGHLAPYTYSLRDTGPEDVLIKVISCGICHTDIHQIKNDLGMSHYPMVPGHEVVGEVVEVGSDVTKFKAGDVVGVGVIVGSCKNCHPCKSELEQYCNKKIWSYNDVYTDGKPTQGGFAESMVVDQKFVVRIPDGMSPEQAAPLLCAGLTVYSPLKHFGLKQSGLRGGILGLGGVGHMGVKIAKAMGHHVTVISSSDKKREEAMEHLGADEYLVSSDVESMQKAADQLDYIIDTVPVVHPLEPYLSLLKLDGKLILMGVINTPLQFVSPMVMLGRKSITGSFIGSMKETEEMLEFCKEKGLASMIEVIKMDYINTAFERLEKNDVRYRFVVDVAGSKLIP
Regarding B2, the Michaelis-Menten constant (Km) in [10] is 17.5 µM; in series [11] it was 37.0 µM; in series [12], 2.3 µM; in series [13], 6.2 µM; in series [14], 9.1 µM. Also, the Vmax in series [10] came out at 0.17 µmol/min/mg; in series [11] it was 0.15 µmol/min/mg; in series [12], 0.21 µmol/min/mg; in [13], 0.17 µmol/min/mg; in series [14] it was 0.1 µmol/min/mg. Also, the kcat in [10] came to 0.113 s⁻¹; in [11], 0.1 s⁻¹; in [12], 0.14 s⁻¹; in [13], 0.113 s⁻¹; in [14] it was 0.0667 s⁻¹.
